In the supplement of paper PMC9732359:
± gives the uncertainty stated by the source.

Test: protein stability index of a GFP-peptide fusion (yeast GPS) (PSI 1-4); higher = more stable; sorted into four equal gates, so the index is relative within each strain
Summary of the method: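 Tiled 17-residue yeast protein peptides were fused downstream of GFP in a plasmid that also expresses Cherry, and the pooled library was carried in yeast. Mid-log cultures in leucine-free medium were sorted into four equal gates by GFP/Cherry fluorescence ratio, and plasmids from each gate were PCR-amplified and Illumina-sequenced, with reads assigned to strains by barcodes. The protein stability index for each peptide was each gate's read frequency times its gate number, summed.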

Sequence	protein stability index (doa10∆)	protein stability index (pdr5∆)	protein stability index (san1∆)	protein stability index (ubr1∆)
KTLCARAVANRTDATFI [RPT1]	1.39 ± 0.12	1.37 ± 0.12	1.26 ± 0.15	1.37 ± 0.18
KTLTGKTITLEVESSDT [RPS31]	2.62 ± 0.048	2.73 ± 0.04	2.43 ± 0.065	1.97 ± 0.034
KTLVALEKQEDYIDNLV [RPC37]	3.23 ± 0.11	2.97 ± 0.14	2.97 ± 0.16	3.07 ± 0.11
KTNFQDVILDYQTKKFY [REC8]	1.62 ± 0.072	1.59 ± 0.051	1.16 ± 0.096	1.24 ± 0.039
KTWEKVTLDFGNIFADL [SMC2]	2.81 ± 0.099	2.92 ± 0.12	3.39 ± 0.1	3.12 ± 0.13
KTYGISDDIISQVDPIT [FAS2]	1.71 ± 0.16	1.1 ± 0.12		1.06 ± 0.13
KVAKRTKIKPFIKVVNY [RPL27A]	2.9 ± 0.09	2.8 ± 0.096	2.86 ± 0.06	2.64 ± 0.076
KVGYTLPSHIISTSDVT [RPL4A]	2.49 ± 0.048	2.69 ± 0.043	2.58 ± 0.039	2.5 ± 0.035
KVKPIRGFCQRLKGKQG [RPO31]	2.79 ± 0.14	2.97 ± 0.16	2.79 ± 0.13	
KVPDSTYDMVGGLTKQI [RPT6]	2.27 ± 0.15	2.63 ± 0.17	1.93 ± 0.22	2.57 ± 0.077
KVQDAIEEEIFDDSSRI [LIN1]	3.07 ± 0.1	3.19 ± 0.11	3.16 ± 0.081	3.06 ± 0.069
KVQISKIPILAQHESFL [RPN9]	1.97 ± 0.06	2.05 ± 0.045	2.16 ± 0.075	2.41 ± 0.037
KVTKIWSKESNYDCKVI [PRP28]	2.93 ± 0.1	2.47 ± 0.059	2.61 ± 0.051	2.97 ± 0.058
KVTLNKETQQYELEFDT [BRR2]	3.13 ± 0.058	3.01 ± 0.056	3.15 ± 0.035	3.19 ± 0.038
KVTSYDITGDIRNEGSD [ISW2]	3.15 ± 0.17	3.04 ± 0.21	3.21 ± 0.14	
KVVEFAITHMIDALGTE [SCL1]	2.03 ± 0.044	2.28 ± 0.038	2.27 ± 0.079	2.18 ± 0.023
KVVKAIRIYFTEKDDNK [NUT1]	2.31 ± 0.13	2.67 ± 0.07	2.55 ± 0.12	2.97 ± 0.056
KWPEYVRLQRQKKILSI [RPL8B]	1.18 ± 0.061	1.16 ± 0.056	1.14 ± 0.098	1.17 ± 0.039
KYKLISRIVEIFALCIY [YML103C/NUP188]	1.58 ± 0.059	2.19 ± 0.055	1.86 ± 0.076	1.85 ± 0.059
KYLLTQRVFKPVDITMM [PRP8]	2.98 ± 0.081	2.99 ± 0.11	3.02 ± 0.079	2.31 ± 0.1
KYPARRIHTNDNDIMNL [SSN3]	2.83 ± 0.074	3.06 ± 0.072	2.98 ± 0.077	2.9 ± 0.059
KYYLEESNVNDSDMLTK [NUT1]	3.13 ± 0.097	3.15 ± 0.082	3.31 ± 0.07	3.36 ± 0.086
LAAERKVTSTLLEQDTS [PRE9]	2.46 ± 0.066	2.58 ± 0.082	2.65 ± 0.082	2.36 ± 0.089
LADRDEFIQDSAARGLS [ECM29]	1.55 ± 0.092	1.31 ± 0.06	1.2 ± 0.14	2.01 ± 0.064
LAFYQVTPEEDEEEDEE [RPL22A]	3.14 ± 0.1	3.45 ± 0.12	3.61 ± 0.06	3.38 ± 0.11
LAGKRGPKSGSTMGTPT [PGD1]	3.35 ± 0.061	2.95 ± 0.05	2.6 ± 0.096	3.19 ± 0.046
